The results in this text go back to patent US20170121397A1 (PROTHENA BIOSCIENCES, published 2017).

Ends that are not written are not given here.

The target of assay [1] is T1, human lactadherin polypeptide (Sino Biological) (human, UniProt Q08431 24-387).
T1 construct: Bought protein; also called MFG-E8; synthetic lactadherin polypeptide
T1 sequence (looked up): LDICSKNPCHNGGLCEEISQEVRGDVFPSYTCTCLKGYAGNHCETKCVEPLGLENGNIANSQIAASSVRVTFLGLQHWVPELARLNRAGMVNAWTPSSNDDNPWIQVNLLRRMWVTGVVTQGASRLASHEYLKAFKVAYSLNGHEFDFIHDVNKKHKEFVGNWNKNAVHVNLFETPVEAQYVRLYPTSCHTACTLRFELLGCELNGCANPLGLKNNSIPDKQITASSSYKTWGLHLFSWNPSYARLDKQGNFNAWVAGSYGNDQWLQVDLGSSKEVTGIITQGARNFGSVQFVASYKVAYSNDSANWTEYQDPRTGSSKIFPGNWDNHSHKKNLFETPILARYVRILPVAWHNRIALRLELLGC
The assay is described as follows: direct ELISA, plate coated with human lactadherin at 2.5 ug/mL, goat anti-mouse HRP, ABTS, OD 405 nm. As for the experimental part: (§1) To further characterize antibodies of interest, ELISA titration curves were generated to determine antibody binding to human lactadherin (FIG. 1A, Sino Biological In.), full-length human medin peptide (50 aa, FIGS. 1A and B) or to the human or mouse C-terminal peptides (see FIG. 1B). Plates were coated with full length human medin, human C-terminal peptide-OVA, mouse C-terminal peptide-OVA and lactadherin at 2.5 ug/mL, 50 uL/well and incubated for about 1 hour at room temperature. The plates were then blocked with 1% BSA/PBS at room temperature. After about 15 minutes, plates were emptied and antibodies of interest were then added to the plates and after a 1 hour incubation at room temperature, the plates were washed with wash buffer. The detection antibody, goat anti-mouse antibody conjugated to horseradish peroxidase (Jackson ImmunoResearch) diluted 1:2,000 in 0.5% BSA/PBS/TBS-T was added to plates and incubated for 1 hour at room temperature. Finally, the plates were washed and then incubated with ABTS substrate (Thermo Scientific) for 15 minutes at room temperature to visualize signal and read at 405 nm on a microplate reader.
A general note: In an ELISA, binding on a coated surface is turned into a signal by an enzyme label.

Assay [2] addresses T2, mouse C-terminal medin peptide (mouse, also: conjugated to OVA in the ELISA).
T2 construct: also called mouse c-terminal peptide; mouse C-terminal peptide-OVA
T2 peptide: CGGHIQYVA
As to the kind of experiment: direct ELISA, plate coated with mouse C-terminal peptide-OVA at 2.5 ug/mL, goat anti-mouse HRP, ABTS, OD 405 nm. As to the method: as §1

The target of assay [3] is T3, full length human medin (50 aa) (human).
T3 construct: Synthetic peptide (American Peptide, Cat # 366587 in the Western blot); Monomer and multimer/oligomer bands seen in Western blot; also called medin peptide; full-length human medin peptide
T3 peptide: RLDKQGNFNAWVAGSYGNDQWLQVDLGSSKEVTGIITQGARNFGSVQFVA
As to the kind of experiment: direct ELISA, plate coated with full length human medin at 2.5 ug/mL, goat anti-mouse HRP, ABTS, OD 405 nm. As to the method: as §1

For assay [4], the target named is T4, human C-terminal medin peptide (human, also: conjugated to OVA in the ELISA).
T4 construct: also called human c-terminal peptide; human C-terminal peptide-OVA
T4 peptide: CGGSVQFVA
As to the kind of experiment: direct ELISA, plate coated with human C-terminal peptide-OVA at 2.5 ug/mL, goat anti-mouse HRP, ABTS, OD 405 nm. As to the method: as §1

Assay [5] has as its target T3, full length human medin (50 aa). As to the kind of experiment: Biacore SPR, antibody captured on anti-mouse chip, medin as analyte, global 1:1 fit. As to the method: Anti-mouse antibody (GE Heathcare) was immobilized on a sensor chip […] (lacking dextran chains) via amine coupling following the instructions provided in the GE Healthcare anti-mouse kit. Anti-medin monoclonal antibodies of interest were then captured on the chip at a level that ensured a maximum binding of analyte at 30-50 RU. Various concentrations of analyte, full-length human medin (50 aa, FIGS. 1A and B) were passed over the captured ligand at 30 ul/min in running buffer (Hepes buffered saline+0.05% P-20, 1 mg/mL BSA) in either 2-fold or 3-fold dilutions, depending on the magnitude of the spanned concentration range. For each concentration, the reaction proceeded for a period of time needed for the higher analyte concentrations to reach equilibrium during association, as well as at least 10% of signal to decay during dissociation. At least one concentration (not the highest or lowest) was run in duplicate. […] The data were doubled referenced to both an irrelevant sensor not containing the medin antibodies and a 0 nM concentration of medin to account for the dissociation of antibodies from the anti-mouse sensor. The data was then analyzed with a global 1:1 fit using the Biacore software.
Background: Surface plasmon resonance follows binding to a sensor surface in real time, without labels.

B1: mouse monoclonal antibody 6B3 (antibody, V domains shown)
VH: QVTLKESGPGILQPSQTLSLTCSFSGFSLSTSDMGVGWIRQPSGKGLEWLAHIWWNDNKYYNIALKNRLTVSKDTSNNQVFLKIASVDTADTATYYCARLVGSWFAYWGQGTLVTVSA
VL: DIQMTQTTSSLSASLGDRVTISCRASQDISNFLSWYHQKPDGTVKLLIYYTSRLHSGVPPRFSGSGSGTDYSLTISNLEQEDIATYFCQQGKTLPPTFGGGTKLEIK
notes: Mouse hybridoma IgG raised against full-length human medin; also called m6B3; PRT6B3
Usually EC50 (read off the curve) stands for the concentration at which the effect is half-maximal. Read a high EC50 (read off the curve) as weaker potency. The term Kd denotes the constant that tells how readily two partners part at equilibrium. A low value points to higher affinity. The term koff denotes a measure of how fast the partners let go of each other. A higher koff goes with a short-lived complex. Broadly, the kon is the second-order rate constant of association. Lower therefore signals slower complex formation. On to B1, for which the “EC50 (read off the curve)” value in assay [1] was roughly 0.2 µg/mL. The binding result in assay [2] is “no binding (tested: 10 ug/ml)”. Also, the “EC50 (read off the curve)” value in assay [3] is roughly 0.1 µg/mL. Moreover, in assay [4], the binding result was “no binding (tested: 10 ug/ml)”. In assay [5], this molecule showed a Kd of 1.04 nM, a koff of 0.000951 s⁻¹ and a kon of 1.11e+06 M⁻¹ s⁻¹.

B2: mouse monoclonal antibody 18G1 (antibody, V domains shown)
VH: EVQLVESGGGLVKPGGSLKLSCAASGFTFSSYAMSWVRQTPEKRLEWVAGISSGDYYTYYPDTVKGRFTISRDNARNTLYLQMRSLRSEDTAMYYCVRGRGNTGPRVGYWGQGTSVTVSS
VL: DIVMTQSQKFMSTSVGDRVSVTCKASQNVGTNVAWYQQKPGQSPKALIYSASYRYSGVPDRFTGSGSGTDFTLTISNVQSEDLAEYFCQQYNSFPLTFGAGTKLELK
notes: Mouse hybridoma IgG raised against the human C-terminal medin peptide; also called m18G1; PRT18G1
Take B2: in assay [2], the “EC50 (read off the curve)” value was roughly 0.05 µg/mL. The “EC50 (read off the curve)” value in assay [3] is roughly 0.04 µg/mL. Besides, the “EC50 (read off the curve)” value in assay [4] was roughly 0.07 µg/mL. Further, in assay [5], the Kd was 12.1 nM, the koff is 0.00712 s⁻¹ and the kon is 590000 M⁻¹ s⁻¹.
